Assay results published in article PMC9600955.

Molecular target: LapD2 purified in isolation (Streptococcus intermedius GC1825)
Test: crystal structure; LapD2 at 10 mg/mL, hanging drop, 0.2 M lithium sulfate, 0.1 M Tris-HCl pH 8.0, 30% PEG 4000; SAD phasing, native data to 2.20 Å

## LapD2 purified in isolation (natural protein)
  stoichiometry N: 2
